Laboratory results published in patent publication US20200040058A1 (JULIUS MAXIMILIANS UNIVERSIT T W RZBURG, published 2020).

Assays:
[1] = molecular target: T1, Recombinant aggregated ROR1 protein, AlexaFluor647-labeled (UniProt Q01973 30-403, limits assumed, labeled with AlexaFluor647); experiment: flow cytometry; CAR T cells stained with 5.3 µg/ml AlexaFluor647-labeled aggregated ROR1
T1 construct: Soluble labelled protein used to stain CAR T cells; also called ROR1 antigen
Experimental: Afterwards the cells were washed with PBS, 0.25% FCS and analyzed by flow cytometry.
Recombinant aggregated ROR1 protein was labeled with the AlexaFluor647 labeling kit (ThermoFisher Scientific, MA) and used to stain T cells expressing ROR1 CARs. The T cells were washed once in PBS, 0.25% FCS and then resuspended in the same buffer containing a final concentration of 5.3 μg/ml labeled ROR1 protein and monoclonal αEGFRt antibody. After an incubation time of 15 min the cells were washed with an excess of PBS, 0.25% FCS and analyzed by flow cytometry.

[2] = molecular target: ROR1 on ROR1-positive target cells (K562-ROR1, MDA-MB-231, A549) (human, UniProt Q01973 30-937); experiment: cell-based or functional assay
ROR1 on ROR1-positive target cells (K562-ROR1, MDA-MB-231, A549), sequence (Q01973 30-937): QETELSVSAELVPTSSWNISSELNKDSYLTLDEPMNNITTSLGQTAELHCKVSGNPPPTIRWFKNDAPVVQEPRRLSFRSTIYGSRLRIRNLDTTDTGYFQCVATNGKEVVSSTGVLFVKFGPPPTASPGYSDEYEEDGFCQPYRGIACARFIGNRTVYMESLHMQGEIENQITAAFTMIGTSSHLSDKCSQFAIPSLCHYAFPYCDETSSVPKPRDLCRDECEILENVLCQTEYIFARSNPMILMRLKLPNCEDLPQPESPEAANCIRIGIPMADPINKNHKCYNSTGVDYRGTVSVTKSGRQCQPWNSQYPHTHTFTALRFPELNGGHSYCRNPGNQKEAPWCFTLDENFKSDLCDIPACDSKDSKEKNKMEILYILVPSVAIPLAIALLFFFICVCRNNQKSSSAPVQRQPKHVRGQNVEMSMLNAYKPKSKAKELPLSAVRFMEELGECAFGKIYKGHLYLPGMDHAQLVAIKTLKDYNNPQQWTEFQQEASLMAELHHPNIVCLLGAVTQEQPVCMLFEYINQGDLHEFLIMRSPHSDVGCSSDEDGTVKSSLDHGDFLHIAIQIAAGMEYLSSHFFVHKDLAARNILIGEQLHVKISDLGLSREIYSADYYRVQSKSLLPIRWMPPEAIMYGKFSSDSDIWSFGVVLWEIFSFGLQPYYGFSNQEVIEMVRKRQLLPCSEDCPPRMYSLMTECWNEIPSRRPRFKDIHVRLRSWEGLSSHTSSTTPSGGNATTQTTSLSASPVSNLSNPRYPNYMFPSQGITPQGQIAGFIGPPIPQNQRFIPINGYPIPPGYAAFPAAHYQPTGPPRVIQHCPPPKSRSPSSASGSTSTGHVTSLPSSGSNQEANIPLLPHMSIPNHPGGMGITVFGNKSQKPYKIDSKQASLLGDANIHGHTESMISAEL

T1 sequence (Q01973 30-403 limits assumed): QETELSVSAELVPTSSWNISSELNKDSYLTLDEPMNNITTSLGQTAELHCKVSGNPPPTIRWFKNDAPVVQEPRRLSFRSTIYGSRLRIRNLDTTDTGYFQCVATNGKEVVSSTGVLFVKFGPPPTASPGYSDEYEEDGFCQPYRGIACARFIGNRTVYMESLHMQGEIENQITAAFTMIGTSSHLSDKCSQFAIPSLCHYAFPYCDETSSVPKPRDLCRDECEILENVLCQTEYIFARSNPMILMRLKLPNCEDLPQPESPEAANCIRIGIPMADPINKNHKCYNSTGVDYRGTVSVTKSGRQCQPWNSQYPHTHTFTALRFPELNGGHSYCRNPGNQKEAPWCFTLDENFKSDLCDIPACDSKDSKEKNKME

| Binder | percentage of T cells with a distinct AlexaFluor647 signal [1] [%] | percentage of T cells with high AlexaFluor647 signal [1] [%] | proliferation index with MDA-MB-231 target cells, fold against the non-humanized R12 CAR [2] [fold] |
| --- | --- | --- | --- |
| humanized 2A2 ROR1 CAR (other, Chimeric antigen receptor with an scFv targeting domain, expressed on primary human T cells after lentiviral transduction; also called h2A2 CAR; h2A2) EVQLVQSGAEVKKPGASVKVSCKASGYTFSDYEMHWVRQAPGQGLEWLGAIDPETGGTAYNQKFKGRVTMTGDTSISTAYMELSRLTSDDTAVYYCTGYYDYDSFTYWGQGTLVSVSSGGGGSGGGGSGGGGSDIQMTQSPSSLSTSVGDRVTITCKASQNVDAAVAWYQQKPGKAPKLLIYSASNRYTGVASRFSGSGSGTDFTFTISSLQSEDLADYFCQQYDIYPYTFGQGTKLEIKESKYGPPCPPCPMFWVLVVVGGVLACYSLLVTVAFIIFWVKRGRKKLLYIFKQPFMRPVQTTQEEDGCSCRFPEEEEGGCELRVKFSRSADAPAYQQGQNQLYNELNLGRREEYDVLDKRRGRDPEMGGKPRRKNPQEGLYNELQKDKMAEAYSEIGMKGERRRGKGHDGLYQGLSTATKDTYDALHMQALPPR | 92.1 | 20 | – |
| non-humanized 2A2 ROR1 CAR (other, Chimeric antigen receptor on primary human T cells; also called 2A2 CAR; non-humanized 2A2 CAR; not shown: spacer, transmembrane, 4-1BB and CD3z parts of the non-humanized CAR are not spelled out; construct described only by re) QVQLQQSGAELVRPGASVTLSCKASGYTFSDYEMHWVIQTPVHGLEWIGAIDPETGGTAYNQKFKGKAILTADKSSSTAYMELRSLTSEDSAVYYCTGYYDYDSFTYWGQGTLVTVSAGGGGSGGGGSGGGGSDIVMTQSQKIMSTTVGDRVSITCKASQNVDAAVAWYQQKPGQSPKLLIYSASNRYTGVPDRFTGSGSGTDFTLTISNMQSEDLADYFCQQYDIYPYTFGGGTKLEIK | 62.7 | 2.61 | – |
| humanized R12 ROR1 CAR (other, Chimeric antigen receptor with an scFv targeting domain, on primary human T cells; also called hR12 CAR; hR12) QVQLVESGGALVQPGGSLTLSCKASGFDFSAYYMSWVRQAPGKGLEWIATIYPSSGKTYYAASVQGRFTISADNAKNTVYLQMNSLTAADTATYFCARDSYADDGALFNIWGQGTLVTVSSGGGGSGGGGSGGGGSQLVLTQSPSVSAALGSSAKITCTLSSAHKTDTIDWYQQLAGQAPRYLMYVQSDGSYEKRSGVPDRFSGSSSGADRYLIISSVQADDEADYYCGADYIGGYVFGGGTQLTVGESKYGPPCPPCPMFWVLVVVGGVLACYSLLVTVAFIIFWVKRGRKKLLYIFKQPFMRPVQTTQEEDGCSCRFPEEEEGGCELRVKFSRSADAPAYQQGQNQLYNELNLGRREEYDVLDKRRGRDPEMGGKPRRKNPQEGLYNELQKDKMAEAYSEIGMKGERRRGKGHDGLYQGLSTATKDTYDALHMQALPPR | 79 | 7.68 | ~2 |
| non-humanized R12 ROR1 CAR (other, Chimeric antigen receptor on primary human T cells; also called R12 CAR; non-humanized R12 CAR; not shown: spacer, transmembrane, 4-1BB and CD3z parts of the non-humanized CAR are not spelled out; construct described only by re) QEQLVESGGRLVTPGGSLTLSCKASGFDFSAYYMSWVRQAPGKGLEWIATIYPSSGKTYYATWVNGRFTISSDNAQNTVDLQMNSLTAADRATYFCARDSYADDGALFNIWGPGTLVTISSGGGGSGGGGSGGGGSELVLTQSPSVSAALGSPAKITCTLSSAHKTDTIDWYQQLQGEAPRYLMQVQSDGSYTKRPGVPDRFSGSSSGADRYLIIPSVQADDEADYYCGADYIGGYVFGGGTQLTVTG | 47.6 | 0.7 | – |
